In patent US12097241B2, “Methods of treating kidney failure, and/or improving or stablizing renal function using modified relaxin polypeptides” (BRISTOL-MYERS SQUIBB COMPANY, priority 2017, dated 2024):
Entries after “also recorded” stand apart in the source; their conditions may differ. Like-named read-outs stand apart in the source and are kept apart here. Marks after values point to notes of the source that are not given here.

How the values were obtained:
[1] = in vivo; cited from earlier work
[2] = test system: renal tubular epithelial cells; assay: Rat toxicity studies, kidney histopathology; type: in vivo, Sprague Dawley rats; settings: rats
Method: FIGS. 7A-7D. PEG-related renal cortical tubule epithelial vacuolation in female Sprague Dawley rats. Kidney from rats treated subcutaneously (SQ) once a day with vehicle or relaxin analogs. […] FIG. 7A: Vehicle (150 mM Arg in 10 mM citrate buffer pH 5.5) SQ for 10 days. FIG. 7B: AQ1-PEG36-Glu-C13-COOH (1.5 kD PEG) SQ at 40 mg/kg/day for 7 days. FIG. 7C: AQ1-20-kDa-PEG (20 kD PEG) SQ at 15 mg/kg/day for 10 days. FIG. 7D: AQ1-GGGGS-Glu^γ (SEQ ID NO: 139)-C14-COOH SQ at 40 mg/kg for 7 days. Magnification 40×, H&E.
AQ1-20 kDa-PEG was given to rats by subcutaneous administration at doses of 1, 5, and 15 mg/kg/day for 10 days. Following the final dose animals were euthanized, dissected, and kidney histopathology was performed. […] In contrast, vacuoles were not observed in renal tubular epithelial cells of rats dosed with Vehicle (150 mM Arg in 10 mM citrate buffer pH 5.5) subcutaneously for 10 days (FIG. 7A).
AQ1-PEG36-Glu-C13-COOH was given to rats by subcutaneous administration at doses of 10 and 40 mg/kg/day for 7 days. Following the final dose animals were euthanized, dissected, and kidney histopathology was performed.
AQ1-GGGGS-Glu^γ (SEQ ID NO: 139)-C14-COOH was given to rats by subcutaneous administration at doses of 5, 20, and 40 mg/kg/day for 7 days. Following the final dose animals were euthanized, dissected, and kidney histopathology was performed.

[3] = In vivo pharmacokinetic (PK) studies in rats; design: species or system Sprague-Dawley rats; settings: for AUC(0-inf): read-out: Rat PK AUC Total; for level at time molar at 24 h: read-out: Rat PK C24
Summary of the method: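 Male Sprague-Dawley rats (n=3) given a single 1 mg/kg IV or SC dose of relaxin constructs in 20 mM histidine, 750 mM NaCl, pH 6.0; jugular serum sampled to 72 h. Serum relaxin by ELISA; Cmax, AUCinf, C24 and half-life from non-compartmental analysis of individual profiles.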

[4] = Rat renal blood flow studies; type: in vivo, Sprague Dawley rats; settings: 1 mg/kg intravenously; for % change in RBF over baseline: anesthetized male Sprague Dawley rats, renal blood flow recorded for 45 min; for effect on renal blood flow (in words): rats
Method: Male Sprague Dawley rats (˜250-300 g) were anesthetized with sodium pentobarbital (50 mg/kg), the trachea was cannulated with PE-205 tubing to maintain airway patency, and temperature was maintained at 37° C. with a heated surgical plate. A 1.4 F pressure catheter (Millar Inc., Houston, TX) was advanced into the right carotid artery to measure aortic blood pressure. The right jugular vein was cannulated with PE-50 tubing for administration of test articles. The left kidney was exposed by a retroperitoneal incision, and a Doppler flow probe (Model 0.5 VB, Transonic System Inc., Ithaca, NY) was attached to the left renal artery to monitor blood flow. Sodium pentobarbital (15 mg/kg, intraperitoneal) was supplemented after completion of these surgical procedures. Following a 10-15 min equilibration, the relaxin was administered at 1 mg/kg intravenously in a dosing volume of 0.15 to 1.82 mL/kg over 30 seconds via an infusion pump (Harvard Apparatus, Holliston, MA). Blood pressure, heart rate and renal blood flow were continuously recorded for 45 min after relaxin administration using a Millar MPVS Ultra Signal Conditioning unit connected to a desktop computer running LabChart 7-Pro data acquisition software (ADInstruments, Dunedin, New Zealand) (Table 5). Table 5. Rat renal blood flow changes (abbreviations as in Table 3).

[5] = Solubility observations; settings: data not shown
[6] = rat, male Sprague-Dawley rats, single SC dose 1.0 mg/kg, serum ELISA
[7] = rats, SC dose 1.0 mg/kg, adjusted from 0.2 mpk

Molecule: Serelaxin
- first-phase pharmacokinetic half-life [1]: 5 to 15 min

Molecule: CC[C@H](C)[C@@H]1NC(=O)[C@H](C)NC(=O)[C@H]([C@@H](C)CC)NC(=O)[C@H](CCC(N)=O)NC(=O)[C@H](C)NC(=O)[C@H](CCCNC(=N)N)NC(=O)[C@H](C(C)C)NC(=O)[C@H](CC(C)C)NC(=O)[C@H](CCC(=O)O)NC(=O)[C@H](CCCNC(=N)N)NC(=O)CNC(=O)[C@@H](NC(=O)[C@H](CC(C)C)NC(=O)[C@H](CCCCN)NC(=O)[C@@H](NC(=O)[C@@H](NC(=O)[C@H](CCC(=O)O)NC(=O)[C@H](CCC(=O)O)NC(=O)[C@H](CCSC)NC(=O)[C@H](Cc2c[nH]c3ccccc23)NC(=O)[C@H](CO)NC(=O)[C@H](C)N)C(C)C)[C@@H](C)CC)CSSC[C@@H]2NC(=O)[C@@H](NC(=O)[C@H](CCCCN)NC(=O)[C@H](CC(N)=O)NC(=O)[C@H](C)NC(=O)[C@H](CC(C)C)NC(=O)[C@H](C)NC(=O)[C@H](CO)NC(=O)[C@H](Cc3ccc(O)cc3)NC(=O)[C@H](CC(C)C)NC(=O)[C@@H](N)Cc3ccc(/C(C)=N/OCCNC(=O)CCOCCOCCOCCOCCOCCOCCOCCOCCOCCOCCOCCOCCOCCOCCOCCOCCOCCOCCOCCOCCOCCOCCOCCOCCOCCOCCOCCOCCOCCOCCOCCOCCOCCOCCOCCOCCNC(=O)CC[C@H](NC(=O)CCCCCCCCCCCCC(=O)O)C(=O)O)cc3)CSSC[C@H](NC(=O)CNC(=O)[C@H](C(C)C)NC(=O)[C@H](Cc3c[nH]cn3)NC2=O)C(=O)N[C@@H]([C@@H](C)O)C(=O)N[C@@H](CCCCN)C(=O)N[C@@H](CCCNC(=N)N)C(=O)N[C@@H](CO)C(=O)N[C@@H](CC(C)C)C(=O)N[C@@H](C)C(=O)N[C@@H](CCCNC(=N)N)C(=O)N[C@@H](Cc2ccccc2)C(=O)N[C@H](C(=O)O)CSSC[C@@H](C(=O)NCC(=O)N[C@@H](CCSC)C(=O)N[C@@H](CO)C(=O)N[C@H](C(=O)N[C@@H](Cc2c[nH]c3ccccc23)C(=O)N[C@@H](CO)C(=O)O)[C@@H](C)O)NC1=O [AQ1-PEG36-Glu-C13-COOH]
- vacuoles in renal tubular epithelial cells ([2]; subcutaneous 10 and 40 mg/kg/day for 7 days): marked cortical tubular vacuolation; also recorded: Vacuoles were observed
- AUC(0-inf) [3, 6]: 1 µM·h
- level at time molar at 24 h [3, 6]: 9.7 nM

Molecule: AQ1-20kDa PEG: AQ1 relaxin conjugated to PEG with an average MW of 20 kDa (chain 1 XLYSALANKCCHVGCTKRSLARFC; chain 2 ASWMEEVIKLCGRELVRAQIAICGMSTWS; non-natural residues)
- % change in RBF over baseline [4]: +21%
- effect on renal blood flow (in words) [4]: increased renal blood flow
- Rat PK AUC Total [3, 7]: 1.475 µM·h
- level at time molar at 24 h [3, 7]: 39 nM

Molecule: CC[C@H](C)[C@@H]1NC(=O)[C@H](C)NC(=O)[C@H]([C@@H](C)CC)NC(=O)[C@H](CCC(N)=O)NC(=O)[C@H](C)NC(=O)[C@H](CCCNC(=N)N)NC(=O)[C@H](C(C)C)NC(=O)[C@H](CC(C)C)NC(=O)[C@H](CCC(=O)O)NC(=O)[C@H](CCCNC(=N)N)NC(=O)CNC(=O)[C@@H](NC(=O)[C@H](CC(C)C)NC(=O)[C@H](CCCCN)NC(=O)[C@@H](NC(=O)[C@@H](NC(=O)[C@H](CCC(=O)O)NC(=O)[C@H](CCC(=O)O)NC(=O)[C@H](CCSC)NC(=O)[C@H](Cc2c[nH]c3ccccc23)NC(=O)[C@H](CO)NC(=O)[C@H](C)N)C(C)C)[C@@H](C)CC)CSSC[C@@H]2NC(=O)[C@@H](NC(=O)[C@H](CCCCN)NC(=O)[C@H](CC(N)=O)NC(=O)[C@H](C)NC(=O)[C@H](CC(C)C)NC(=O)[C@H](C)NC(=O)[C@H](CO)NC(=O)[C@H](Cc3ccc(O)cc3)NC(=O)[C@H](CC(C)C)NC(=O)[C@@H](N)Cc3ccc(/C(C)=N/OCCNC(=O)CNC(=O)CNC(=O)CNC(=O)CNC(=O)[C@H](CO)NC(=O)CC[C@H](NC(=O)CCCCCCCCCCCCCC(=O)O)C(=O)O)cc3)CSSC[C@H](NC(=O)CNC(=O)[C@H](C(C)C)NC(=O)[C@H](Cc3c[nH]cn3)NC2=O)C(=O)N[C@@H]([C@@H](C)O)C(=O)N[C@@H](CCCCN)C(=O)N[C@@H](CCCNC(=N)N)C(=O)N[C@@H](CO)C(=O)N[C@@H](CC(C)C)C(=O)N[C@@H](C)C(=O)N[C@@H](CCCNC(=N)N)C(=O)N[C@@H](Cc2ccccc2)C(=O)N[C@H](C(=O)O)CSSC[C@@H](C(=O)NCC(=O)N[C@@H](CCSC)C(=O)N[C@@H](CO)C(=O)N[C@H](C(=O)N[C@@H](Cc2c[nH]c3ccccc23)C(=O)N[C@@H](CO)C(=O)O)[C@@H](C)O)NC1=O [AQ1-GGGGS-Glu^γ-C14-COOH]
- solubility profile [5]: favorable solubility profile
- vacuoles in renal tubular epithelial cells ([2]; subcutaneous 5, 20 and 40 mg/kg/day for 7 days, listed as AQ1-GGGGS-Glu^γ (SEQ ID NO: 139)-C14-COOH): Vacuoles are not observed; also recorded: no evidence of test-article related vacuoles
- AUC(0-inf) [3, 6]: 2.31 µM·h
- level at time molar at 24 h [3, 6]: 17 nM

Molecule: CCCCCCCCCCCCCC(=O)N[C@@H](CCC(=O)NCCOCCOCCOCCOCCOCCOCCOCCOCCOCCOCCOCCOCCOCCOCCOCCOCCOCCOCCOCCOCCOCCOCCOCCOCCOCCOCCOCCOCCOCCOCCOCCOCCOCCOCCOCCOCCC(=O)NCCO/N=C(\C)c1ccc(C[C@H](N)C(=O)N[C@@H](CC(C)C)C(=O)N[C@@H](Cc2ccc(O)cc2)C(=O)N[C@@H](CO)C(=O)N[C@@H](C)C(=O)N[C@@H](CC(C)C)C(=O)N[C@@H](C)C(=O)N[C@@H](CC(N)=O)C(=O)N[C@@H](CCCCN)C(=O)N[C@H]2CSSC[C@@H]3NC(=O)CNC(=O)[C@H](C(C)C)NC(=O)[C@H](Cc4c[nH]cn4)NC(=O)[C@H](CSSC[C@H](NC(=O)[C@H](CC(C)C)NC(=O)[C@H](CCCCN)NC(=O)[C@@H](NC(=O)[C@@H](NC(=O)[C@H](CCC(=O)O)NC(=O)[C@H](CCC(=O)O)NC(=O)[C@H](CCSC)NC(=O)[C@H](Cc4c[nH]c5ccccc45)NC(=O)[C@H](CO)NC(=O)[C@H](C)N)C(C)C)[C@@H](C)CC)C(=O)NCC(=O)N[C@@H](CCCNC(=N)N)C(=O)N[C@@H](CCC(=O)O)C(=O)N[C@@H](CC(C)C)C(=O)N[C@@H](C(C)C)C(=O)N[C@@H](CCCNC(=N)N)C(=O)N[C@@H](C)C(=O)N[C@@H](CCC(N)=O)C(=O)N[C@@H]([C@@H](C)CC)C(=O)N[C@@H](C)C(=O)N[C@@H]([C@@H](C)CC)C(=O)N[C@H](C(=O)NCC(=O)N[C@@H](CCSC)C(=O)N[C@@H](CO)C(=O)N[C@H](C(=O)N[C@@H](Cc4c[nH]c5ccccc45)C(=O)N[C@@H](CO)C(=O)O)[C@@H](C)O)CSSC[C@@H](C(=O)O)NC(=O)[C@H](Cc4ccccc4)NC(=O)[C@H](CCCNC(=N)N)NC(=O)[C@H](C)NC(=O)[C@H](CC(C)C)NC(=O)[C@H](CO)NC(=O)[C@H](CCCNC(=N)N)NC(=O)[C@H](CCCCN)NC(=O)[C@H]([C@@H](C)O)NC3=O)NC2=O)cc1)C(=O)O [AQ1-PEG36-Glu-C13-CH3]
- % change in RBF over baseline [4]: +20^b %
- effect on renal blood flow (in words) ([4]; 1 mg/kg): increased renal blood flow; also recorded: good renal blood flow
